The supplement of paper PMC12042874
± gives the uncertainty stated by the source.

Assay: amyloid nucleation score (Sup35N fusion, yeast selection) (log enrichment); library NNK1; higher = more nucleation; inactive = no reads after selection
Outline: (§1)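 Libraries of peptides of 20 random codons fused to Sup35N were expressed in psi-negative yeast and induced 24 hours with 100 μM copper sulfate. Selection was 7 days at 30°C on medium lacking adenine and uracil, and plasmid inserts were Illumina-sequenced before and after selection. Nucleation score is the DiMSum log enrichment of output over input reads, centred on the mode score of non-aggregating sequences, and sequences with under 100 input reads were left out.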

Substance | amyloid nucleation score
AKLDWHIRTAEWGLPKLLLT | inactive
TGSHLPRDGSVSKCVFRY | 0.248 ± 0.53
SLPQKGIHWRQYL | 0.368 ± 0.61
TMSHCVRRCGVMGGVVAFKG | -0.031 ± 0.38
PLPVNPYPTHATIGWPRISG | -0.427 ± 0.55
LLYIILFRNYILYKLWIRFA | 0.572 ± 0.3
IVVFQGVCTKMLRTDELIWR | 1.18 ± 0.2
LLLYLTLAIGSRLCRELPQR | 0.523 ± 0.43
AAKRSETAP | -0.308 ± 0.43
FLFAMFNSISMKSAKLKWNR | 3.91 ± 0.086
WFSRTPWYFVFRCNDDMDCS | inactive
VRFWTLEFSPVRFSS | -1.11 ± 0.86
WVVLFLLWNGWVDWHIRTEQ | -0.128 ± 0.36
TSDFVVPM | 0.691 ± 0.41
NCSGVFKGKSLTSCGT | -0.038 ± 0.21
LCQGEKISPVKQHHVYCLGE | 0.649 ± 0.85
WLVVFVDSVYARRWCELKFL | 0.39 ± 0.36
SMVYAYAAIILGWWNWGRGC | 0.003 ± 1.1
GPSWFGVPTAAFF | 0.502 ± 0.43
LTSCLLPFDPLSNDNYKGVW | 1.78 ± 0.65
AECLDPMNAVTVCRGSWL | 0.101 ± 0.35
DCRQTAKHFPETSDNLYRLT | -0.2 ± 0.28
DITYVYFSVAELLLMFLTLY | 1.33 ± 0.48
GGKRVGNIVVRRAQIIIGRR | 1.07 ± 0.7
RSNYVDVSGLSYGGLIAL | inactive
LFGGFMFLGKWDQLHGHNEC | 0.799 ± 0.49

Substance | amyloid nucleation score
IYNGWQIRGNVNMMLCVCEW | 6.568 ± 0.059
FREFWPGLYYTTPYKLSNHC | -2.14 ± 1.1
ISVGCF | 0.201 ± 0.49
GSWQDSRRNFWSGRGMFERV | 0.484 ± 0.47
RMYITMSQSRKVVICVMMVM | -0.164 ± 1.1
TIVYATGMNMYTDAC | -0.203 ± 0.34
TLTCFLIYHTWTR | -1.34 ± 1.4
TIFIAMDFNRVGKLFYRN | 5.368 ± 0.05
GLKALILNSSSCCRARFGAA | 0.307 ± 0.23
RFVMRPFATVSTFSISVPAC | -0.638 ± 0.74
YDAIYV | 0.368 ± 0.63
GFKVVDTAWFL | -0.116 ± 0.27
SGMHHHDKARNRG | 1.26 ± 0.59
TFSFARLRDLKWVMPRVRRS | 0.27 ± 0.44
KRLRTKFYVVLYFSYMSSTL | -1.52 ± 1.5
NSGESLS | -0.186 ± 0.85
CMSLYRGFLTPEWNIFVWLA | 0.514 ± 0.61
LYRVSLLGRGGNSMMCDMWL | inactive
WEVERDTSSPSEIVINR | -0.063 ± 0.89
TTFGRPSTPH | -0.393 ± 0.38
GGFSNFMMVCNVATFSSNQL | 3.47 ± 0.19
RWVYSTRNHLKIVRNNKSEL | -2.15 ± 2.4
TLFLVWILGVTKSRITGTPS | 0.325 ± 0.73
PDSCIENLDMWYTFNGDNDT | -0.828 ± 0.3
CKTLMLCTRICFDANQLASR | 1.71 ± 0.78
SKLMTRVTVWLGSYGRGSWH | 0.629 ± 0.83

Substance | amyloid nucleation score
PGFPNLVTSRTLIVCQL | inactive
LYNVKTGFVRQTDVG | 0.106 ± 0.91
YALKLSMDVGLYLLFEGDRD | -1.36 ± 1.9
TGLELGVPKIRCMSFHVLPW | -0.394 ± 0.92
HELMLQILGLAFLLGMFAGV | -0.747 ± 0.63
KNMAYHDSLDSVYPAVG | 0.32 ± 0.57
YRVHVCQEWMGSWCCGCVKG | 2.54 ± 0.2
YMKMMYAIYCLWLRHYSMLF | inactive
APEGLPMDAPGLGWVNRVII | -0.295 ± 0.8
HVWSILAISVYNAHRGSRV | 7.134 ± 0.051
VIKSRP | 0.639 ± 0.42
SYSDICEVNLDTHKFVLGVR | -0.992 ± 0.49
YTFGDAGHPESAMVTCRAYS | -0.007 ± 0.33
EVVEWSLTKNCLFHALFIWV | -0.142 ± 0.3
NTVFVIDESFGVMGWLGLKQ | 0.294 ± 0.82
TVVIDSFLCRLQNGVDLGS | inactive
WCRDIPWMVLNTVGRY | -0.547 ± 0.63
TDGIAVSFTNHDVWMVDAFV | 0.241 ± 1.4
QKSYMCRVGYPF | 0.501 ± 0.72
PSFRWIGSEMSTMFMLQVTL | 0.058 ± 0.55
ENVGRTLAYIWMVWLSSQML | 1.87 ± 0.67
MIIPD | 1.14 ± 0.34
YTVVLEKTKVMYTVAPPRSL | -1.04 ± 2.4
NHGLYTVFWGCCPWFSQNLF | 7.894 ± 0.073
VEVKSCIWDFGCNQRGYGDG | 5.32 ± 0.079
LTNATFQLWLLCCDGPLRDM | 5.87 ± 0.062

Substance | amyloid nucleation score
ENDVNDLRSPLDNQYLSRLP | inactive
VNVIWAFYNN | 5.7 ± 0.072
WMSLIGKNMRMIMVIKKWAL | inactive
CLIRIVKF | 1.08 ± 0.7
MMFSRILCNGDPQGSARWLS | inactive
LCSNC | inactive
GFGLVRIPIMFNEAPEVVSK | -0.133 ± 0.46
TVYMGTLCHYYSGIRLGSIL | 0.458 ± 0.4
QFLLLPGNHHRFRSRHIRTL | -0.255 ± 0.26
SQLVHERNSVGFEIVWMNHL | -0.249 ± 1.7
GWNVTEIYFFMWVRITSGWM | 2.27 ± 0.19
KLIFKRSFNRMDLSSLCYFR | -0.471 ± 0.39
TVWYITTLAGEFAA | 1.09 ± 0.53
VFYFYYFDEMCVSSMNRLKL | -0.36 ± 0.27
DAALVIYLL | -0.6 ± 0.52
WTRCHK | -0.297 ± 0.35
FSGGGNITACGCV | -0.385 ± 0.65
QECMKLNLAFYWSDCVVRSF | 1.76 ± 0.49
LNSLVKALQSVNNYVDLTYS | 0.358 ± 1.1
THSRFKVCPVSMLCNAPQQR | 0.626 ± 1.2
KWILVRSLESIHKPTL | 0.174 ± 0.89
VNYPEDPTSKEIIRHSLGTG | -1.13 ± 2.4
FVVSLECTTRRVGLGALC | inactive
HGGRDVCDKGVSSRGHRW | 0.276 ± 0.79
GVLEVIYVSLFRGRAESVFR | 1.67 ± 0.34
HWVLDWQAQVRMPRNSVSGL | inactive

Substance | amyloid nucleation score
NVTCSHPGFFYSIVKTYMFR | -0.877 ± 1.9
GNSYLILNGRSYSRIFARSS | inactive
LRVVYPGPSYAGASDLSSMR | -0.926 ± 0.63
CGFALSRQVDILILLADSYD | 0.167 ± 1.1
VHDVWEGFICGLPKYRGRLM | 0.026 ± 0.75
KASDGLSINRGE | 0.48 ± 0.73
TKSRRSEGCEMPCHCNEVFV | 0.497 ± 0.72
QSAYRSR | inactive
SAVWEVVEGDVLMWSYMKSP | 0.019 ± 0.33
NPEILCRLKIPFSSCLDSAS | 0.341 ± 0.61
DDVGSTRYTTMGEACQGRPA | -1.13 ± 0.8
TWVVTHPPTM | 0.359 ± 0.55
ISTDPWAAHYNRTHIQ | 1.98 ± 0.15
GVMIWRQRWRKVIVGGALRW | -0.217 ± 0.63
MGGVMAVLFRIMLGVIF | inactive
GFSRQSTWMCRKWSTNPRTW | 1.15 ± 0.34
KQECQYCWSG | -1.15 ± 0.36
VFLIDLLLTMCFFLYGAFLV | 0.76 ± 1.1
YKSLDGF | 0.704 ± 0.93
FVTIWWLYRTCIFLSTVRTT | 1.5 ± 0.26
DLIQLGLGQVSDPLGTWWSG | 2.29 ± 0.3
YLDLFTGSSH | -0.368 ± 0.27
FVNFGFAGIASWHFVLMFIK | 0.1 ± 0.27

Assay: amyloid nucleation score (Sup35N fusion, yeast selection) (log enrichment); library NNK2; higher = more nucleation; inactive = no reads after selection
Outline: as §1

Substance | amyloid nucleation score
AKLDWHIRTAEWGLPKLLLT | -0.467 ± 0.54
